Laboratory results taken from patent publication JP2019059762A (dated 2019).
Where “and” joins values, the source holds several entries; their conditions need not be identical. Identical values can stand only once.

Tests used:
Test in all cases: cell-based or functional assay
cynomolgus monkey IL-4 = target: T1, cynomolgus monkey IL-4 (cynomolgus monkey, UniProt P79339 25-153)
T1 sequence (looked up): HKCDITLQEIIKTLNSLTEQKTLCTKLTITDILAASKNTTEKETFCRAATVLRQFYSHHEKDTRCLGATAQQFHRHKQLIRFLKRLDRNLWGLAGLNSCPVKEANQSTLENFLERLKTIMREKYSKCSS

recombinant human IL-13 = recombinant human IL-13 (human, UniProt P35225 35-146, limits assumed)
Chain of recombinant human IL-13 (P35225 35-146 limits assumed): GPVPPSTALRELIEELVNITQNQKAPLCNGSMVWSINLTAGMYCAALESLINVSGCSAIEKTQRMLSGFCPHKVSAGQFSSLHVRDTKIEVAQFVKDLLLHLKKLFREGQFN

cynomolgus monkey IL-13 = cynomolgus monkey IL-13 (cynomolgus monkey, UniProt Q0PW92 21-132)
Chain of cynomolgus monkey IL-13 (Q0PW92 entry or part of it): as the sequence (P35225 35-146 limits assumed) above, with G1S, R10K, M42V, S67N, H83R, L100V counted along it

geometric mean IC50, inhibition of cIL-4-induced TF-1 cell proliferation (cynomolgus monkey IL-4): 0.53 nM
IC50, inhibition of IL-4- and IL-13-induced LOX gene expression in IPF lung fibroblasts (recombinant human IL-13): 3 nM and 6 nM
IC50, inhibition of IL-13-induced Stat6 phosphorylation in human whole blood monocytes, donor 002 (recombinant human IL-13): 1.32 nM
IC50, inhibition of IL-13-induced Stat6 phosphorylation in human whole blood monocytes, donor 229 (recombinant human IL-13): 3.68 nM
IC50, inhibition of IL-13-induced Stat6 phosphorylation in human whole blood monocytes, donor 245 (recombinant human IL-13): 2.65 nM
IC50, suppression of IL-6 release from IPF lung fibroblasts (LL97A) stimulated with rhIL-13 + rhIL-4 together (recombinant human IL-13): 7.8 nM
IC50, suppression of eotaxin release from IPF lung fibroblasts (LL97A) stimulated with rhIL-13 + rhIL-4 together (recombinant human IL-13): 3.8 nM
geometric mean IC50, inhibition of hIL-13-induced TF-1 cell proliferation (recombinant human IL-13): 3.02 nM
geometric mean IC50 of three experiments, inhibition of IL-13-induced Stat6 phosphorylation (recombinant human IL-13): 2.34 nM
geometric mean IC50, inhibition of cIL-13-induced TF-1 cell proliferation (cynomolgus monkey IL-13): 0.45 nM
B1: huTBTI3_2_1 (bispecific antibody)
chain 1: EVQLKESGPGLVAPGGSLSITCTVSGFSLTDSSINWVRQPPGKGLEWLGMIWGDGRIDYADALKSRLSISKDSSKSQVFLEMTSLRTDDTATYYCARDGYFPYAMDFWGQGTSVTVSSGGGGSGGGGSQVQLQQSGPELVKPGASVKISCKASGYSFTSYWIHWIKQRPGQGLEWIGMIDPSDGETRLNQRFQGRATLTVDESTSTAYMQLRSPTSEDSAVYYCTRLKEYGNYDSFYFDVWGAGTLVTVSSA
chain 2: DIVLTQSPASLAVSLGQRATISCRASESVDSYGQSYMHWYQQKAGQPPKLLIYLASNLESGVPARFSGSGSRTDFTLTIDPVQAEDAATYYCQQNAEDSRTFGGGTKLEIKGGGGSGGGGSDIQMTQSPASLSVSVGDTITLTCHASQNIDVWLSWFQQKPGNIPKLLIYKASNLHTGVPSRFSGSGSGTGFTLTISSLQPEDIATYYCQQAHSYPFTFGGGTKLEIKR
